# Numbered stars: 1 amine (or outer) side, 2 acyl side, 3 side chain; on linkers, the order of the positions; unused ones are H or OH. Bridge positions count the residues as written; N and C are the ends. Side chains are listed from the residue outwards. Ends that are not written are not given here. * marks the point of attachment. C20 diacid = O=C(O)CCCCCCCCCCCCCCCCCCC(=O)*; γGlu = O=C(O)[C@H](CCC(=O)[*:2])N[*:1]; AEEA = NCCOCCOCC(=O)O
# T1: human calcitonin receptor (human, UniProt P30988 25-474)
# T1 sequence (looked up): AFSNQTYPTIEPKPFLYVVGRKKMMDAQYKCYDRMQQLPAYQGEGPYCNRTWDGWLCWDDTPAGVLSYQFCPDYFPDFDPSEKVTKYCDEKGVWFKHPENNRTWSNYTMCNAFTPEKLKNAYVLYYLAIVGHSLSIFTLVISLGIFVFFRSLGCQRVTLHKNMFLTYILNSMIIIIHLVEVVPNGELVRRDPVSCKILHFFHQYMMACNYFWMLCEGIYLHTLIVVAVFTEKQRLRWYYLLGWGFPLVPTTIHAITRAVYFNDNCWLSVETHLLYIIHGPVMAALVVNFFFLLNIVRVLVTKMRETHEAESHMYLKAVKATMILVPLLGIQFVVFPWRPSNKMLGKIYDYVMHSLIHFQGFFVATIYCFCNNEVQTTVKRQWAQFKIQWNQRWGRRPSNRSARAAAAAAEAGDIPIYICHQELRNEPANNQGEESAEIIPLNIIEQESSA
# T2: human amylin receptor (amylin 3(a) receptor: human calcitonin receptor co-expressed with RAMP-3) (human, UniProt P30988 25-474; O60896 24-148, limits assumed)
# T2 sequence (looked up) 1: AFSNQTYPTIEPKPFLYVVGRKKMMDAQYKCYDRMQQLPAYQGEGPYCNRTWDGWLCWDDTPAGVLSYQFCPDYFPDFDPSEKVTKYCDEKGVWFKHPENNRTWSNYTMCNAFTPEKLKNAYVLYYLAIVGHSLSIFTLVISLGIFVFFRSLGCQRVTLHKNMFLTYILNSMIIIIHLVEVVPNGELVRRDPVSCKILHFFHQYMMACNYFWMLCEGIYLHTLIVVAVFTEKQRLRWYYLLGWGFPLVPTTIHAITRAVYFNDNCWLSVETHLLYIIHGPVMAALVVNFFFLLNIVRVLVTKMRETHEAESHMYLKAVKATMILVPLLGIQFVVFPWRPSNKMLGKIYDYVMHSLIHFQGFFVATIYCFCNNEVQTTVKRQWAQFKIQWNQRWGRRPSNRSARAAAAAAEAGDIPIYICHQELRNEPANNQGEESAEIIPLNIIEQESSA
# T2 sequence (looked up) 2: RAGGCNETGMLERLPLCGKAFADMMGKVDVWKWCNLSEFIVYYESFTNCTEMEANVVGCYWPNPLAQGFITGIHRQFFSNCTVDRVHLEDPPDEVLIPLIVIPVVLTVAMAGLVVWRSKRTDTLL
# T3: human calcitonin receptor (human, UniProt P30988 25-474)
# T3 construct: whole, on cells; also called hCTR; hCT
# T3 sequence (looked up): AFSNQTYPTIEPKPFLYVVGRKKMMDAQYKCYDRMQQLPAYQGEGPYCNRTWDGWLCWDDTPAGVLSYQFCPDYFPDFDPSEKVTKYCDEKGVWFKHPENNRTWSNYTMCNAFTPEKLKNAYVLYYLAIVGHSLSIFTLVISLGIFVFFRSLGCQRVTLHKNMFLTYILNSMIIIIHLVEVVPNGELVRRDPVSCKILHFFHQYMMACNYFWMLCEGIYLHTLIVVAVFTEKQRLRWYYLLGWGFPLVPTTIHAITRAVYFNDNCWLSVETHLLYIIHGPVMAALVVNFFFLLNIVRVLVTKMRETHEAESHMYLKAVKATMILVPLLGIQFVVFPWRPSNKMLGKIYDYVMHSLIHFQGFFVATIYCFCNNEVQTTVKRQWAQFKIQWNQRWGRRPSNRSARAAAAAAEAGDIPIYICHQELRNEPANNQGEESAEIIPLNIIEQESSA
# B1: N^ε1-[2-[2-[2-[[(4S)-4-carboxy-4-(19-carboxynonadecanoylamino)butanoyl]amino]ethoxy]ethoxy]acetyl]-[His14,Arg17,Pro21,Pro27]-h-amylin (peptide)
# peptide: K([AEEA-γGlu-C20 diacid])CNTATCATQRLAHFLRHSSPNFGAIPSSTNVGSNTY-NH2
# modifications: disulfide 2-7; N-terminus assumed
# SMILES: CC[C@H](C)[C@H](NC(=O)[C@H](C)NC(=O)CNC(=O)[C@H](Cc1ccccc1)NC(=O)[C@H](CC(N)=O)NC(=O)[C@@H]1CCCN1C(=O)[C@H](CO)NC(=O)[C@H](CO)NC(=O)[C@H](Cc1c[nH]cn1)NC(=O)[C@H](CCCNC(=N)N)NC(=O)[C@H](CC(C)C)NC(=O)[C@H](Cc1ccccc1)NC(=O)[C@H](Cc1c[nH]cn1)NC(=O)[C@H](C)NC(=O)[C@H](CC(C)C)NC(=O)[C@H](CCCNC(=N)N)NC(=O)[C@H](CCC(N)=O)NC(=O)[C@@H](NC(=O)[C@H](C)NC(=O)[C@@H]1CSSC[C@H](NC(=O)[C@@H](N)CCCCNC(=O)COCCOCCNC(=O)CC[C@H](NC(=O)CCCCCCCCCCCCCCCCCCC(=O)O)C(=O)O)C(=O)N[C@@H](CC(N)=O)C(=O)N[C@@H]([C@@H](C)O)C(=O)N[C@@H](C)C(=O)N[C@@H]([C@@H](C)O)C(=O)N1)[C@@H](C)O)C(=O)N1CCC[C@H]1C(=O)N[C@@H](CO)C(=O)N[C@@H](CO)C(=O)N[C@H](C(=O)N[C@@H](CC(N)=O)C(=O)N[C@H](C(=O)NCC(=O)N[C@@H](CO)C(=O)N[C@@H](CC(N)=O)C(=O)N[C@H](C(=O)N[C@@H](Cc1ccc(O)cc1)C(N)=O)[C@@H](C)O)C(C)C)[C@@H](C)O
# notes: also called compound 69
# B2: N^ε1-[2-[2-[2-[[2-[2-[2-[[(4S)-4-carboxy-4-(19-carboxynonadecanoylamino)butanoyl]amino]ethoxy]ethoxy]acetyl]amino]ethoxy]ethoxy]acetyl]-[Arg17,Pro21,Pro27,Arg34 … (peptide)
# peptide: K([AEEA-AEEA-γGlu-C20 diacid])CNTATCATQRLANFLRHSSPNFGAIPSSTNVGRNTY-NH2
# modifications: disulfide 2-7; N-terminus assumed
# SMILES: CC[C@H](C)[C@H](NC(=O)[C@H](C)NC(=O)CNC(=O)[C@H](Cc1ccccc1)NC(=O)[C@H](CC(N)=O)NC(=O)[C@@H]1CCCN1C(=O)[C@H](CO)NC(=O)[C@H](CO)NC(=O)[C@H](Cc1c[nH]cn1)NC(=O)[C@H](CCCNC(=N)N)NC(=O)[C@H](CC(C)C)NC(=O)[C@H](Cc1ccccc1)NC(=O)[C@H](CC(N)=O)NC(=O)[C@H](C)NC(=O)[C@H](CC(C)C)NC(=O)[C@H](CCCNC(=N)N)NC(=O)[C@H](CCC(N)=O)NC(=O)[C@@H](NC(=O)[C@H](C)NC(=O)[C@@H]1CSSC[C@H](NC(=O)[C@@H](N)CCCCNC(=O)COCCOCCNC(=O)COCCOCCNC(=O)CC[C@H](NC(=O)CCCCCCCCCCCCCCCCCCC(=O)O)C(=O)O)C(=O)N[C@@H](CC(N)=O)C(=O)N[C@@H]([C@@H](C)O)C(=O)N[C@@H](C)C(=O)N[C@@H]([C@@H](C)O)C(=O)N1)[C@@H](C)O)C(=O)N1CCC[C@H]1C(=O)N[C@@H](CO)C(=O)N[C@@H](CO)C(=O)N[C@H](C(=O)N[C@@H](CC(N)=O)C(=O)N[C@H](C(=O)NCC(=O)N[C@@H](CCCNC(=N)N)C(=O)N[C@@H](CC(N)=O)C(=O)N[C@H](C(=O)N[C@@H](Cc1ccc(O)cc1)C(N)=O)[C@@H](C)O)C(C)C)[C@@H](C)O
# notes: also called compound 95
# B3: N^ε1-[2-[2-[2-(19-carboxynonadecanoylamino)ethoxy]ethoxy]acetyl]-[Arg17,Pro21,Pro27,His34]-h-amylin (peptide)
# peptide: K([AEEA-C20 diacid])CNTATCATQRLANFLRHSSPNFGAIPSSTNVGHNTY-NH2
# modifications: disulfide 2-7; N-terminus assumed
# SMILES: CC[C@H](C)[C@H](NC(=O)[C@H](C)NC(=O)CNC(=O)[C@H](Cc1ccccc1)NC(=O)[C@H](CC(N)=O)NC(=O)[C@@H]1CCCN1C(=O)[C@H](CO)NC(=O)[C@H](CO)NC(=O)[C@H](Cc1c[nH]cn1)NC(=O)[C@H](CCCNC(=N)N)NC(=O)[C@H](CC(C)C)NC(=O)[C@H](Cc1ccccc1)NC(=O)[C@H](CC(N)=O)NC(=O)[C@H](C)NC(=O)[C@H](CC(C)C)NC(=O)[C@H](CCCNC(=N)N)NC(=O)[C@H](CCC(N)=O)NC(=O)[C@@H](NC(=O)[C@H](C)NC(=O)[C@@H]1CSSC[C@H](NC(=O)[C@@H](N)CCCCNC(=O)COCCOCCNC(=O)CCCCCCCCCCCCCCCCCCC(=O)O)C(=O)N[C@@H](CC(N)=O)C(=O)N[C@@H]([C@@H](C)O)C(=O)N[C@@H](C)C(=O)N[C@@H]([C@@H](C)O)C(=O)N1)[C@@H](C)O)C(=O)N1CCC[C@H]1C(=O)N[C@@H](CO)C(=O)N[C@@H](CO)C(=O)N[C@H](C(=O)N[C@@H](CC(N)=O)C(=O)N[C@H](C(=O)NCC(=O)N[C@@H](Cc1c[nH]cn1)C(=O)N[C@@H](CC(N)=O)C(=O)N[C@H](C(=O)N[C@@H](Cc1ccc(O)cc1)C(N)=O)[C@@H](C)O)C(C)C)[C@@H](C)O
# notes: also called compound 91
# B4: N^ε-[2-[2-[2-[[(4S)-4-carboxy-4-(19-carboxynonadecanoylamino)butanoyl]amino]ethoxy]ethoxy]acetyl]Lys[Arg1,Arg17,Pro21,Pro27,His35]-h-amylin (peptide)
# peptide: K([AEEA-γGlu-C20 diacid])RCNTATCATQRLANFLRHSSPNFGAIPSSTNVGSHTY-NH2
# modifications: disulfide 3-8; N-terminus assumed
# SMILES: CC[C@H](C)[C@H](NC(=O)[C@H](C)NC(=O)CNC(=O)[C@H](Cc1ccccc1)NC(=O)[C@H](CC(N)=O)NC(=O)[C@@H]1CCCN1C(=O)[C@H](CO)NC(=O)[C@H](CO)NC(=O)[C@H](Cc1c[nH]cn1)NC(=O)[C@H](CCCNC(=N)N)NC(=O)[C@H](CC(C)C)NC(=O)[C@H](Cc1ccccc1)NC(=O)[C@H](CC(N)=O)NC(=O)[C@H](C)NC(=O)[C@H](CC(C)C)NC(=O)[C@H](CCCNC(=N)N)NC(=O)[C@H](CCC(N)=O)NC(=O)[C@@H](NC(=O)[C@H](C)NC(=O)[C@@H]1CSSC[C@H](NC(=O)[C@H](CCCNC(=N)N)NC(=O)[C@@H](N)CCCCNC(=O)COCCOCCNC(=O)CC[C@H](NC(=O)CCCCCCCCCCCCCCCCCCC(=O)O)C(=O)O)C(=O)N[C@@H](CC(N)=O)C(=O)N[C@@H]([C@@H](C)O)C(=O)N[C@@H](C)C(=O)N[C@@H]([C@@H](C)O)C(=O)N1)[C@@H](C)O)C(=O)N1CCC[C@H]1C(=O)N[C@@H](CO)C(=O)N[C@@H](CO)C(=O)N[C@H](C(=O)N[C@@H](CC(N)=O)C(=O)N[C@H](C(=O)NCC(=O)N[C@@H](CO)C(=O)N[C@@H](Cc1c[nH]cn1)C(=O)N[C@H](C(=O)N[C@@H](Cc1ccc(O)cc1)C(N)=O)[C@@H](C)O)C(C)C)[C@@H](C)O
# notes: extended by one residue at the N-terminus; also called compound 45
# B5: N^-1-[(4S)-4-carboxy-4-(19-carboxynonadecanoylamino)butanoyl]-Gly[Arg1,Arg17,Pro21,Pro27]-h-amylin (peptide)
# peptide: {C20 diacid-γGlu}-GRCNTATCATQRLANFLRHSSPNFGAIPSSTNVGSNTY-NH2
# modifications: disulfide 3-8
# SMILES: CC[C@H](C)[C@H](NC(=O)[C@H](C)NC(=O)CNC(=O)[C@H](Cc1ccccc1)NC(=O)[C@H](CC(N)=O)NC(=O)[C@@H]1CCCN1C(=O)[C@H](CO)NC(=O)[C@H](CO)NC(=O)[C@H](Cc1c[nH]cn1)NC(=O)[C@H](CCCNC(=N)N)NC(=O)[C@H](CC(C)C)NC(=O)[C@H](Cc1ccccc1)NC(=O)[C@H](CC(N)=O)NC(=O)[C@H](C)NC(=O)[C@H](CC(C)C)NC(=O)[C@H](CCCNC(=N)N)NC(=O)[C@H](CCC(N)=O)NC(=O)[C@@H](NC(=O)[C@H](C)NC(=O)[C@@H]1CSSC[C@H](NC(=O)[C@H](CCCNC(=N)N)NC(=O)CNC(=O)CC[C@H](NC(=O)CCCCCCCCCCCCCCCCCCC(=O)O)C(=O)O)C(=O)N[C@@H](CC(N)=O)C(=O)N[C@@H]([C@@H](C)O)C(=O)N[C@@H](C)C(=O)N[C@@H]([C@@H](C)O)C(=O)N1)[C@@H](C)O)C(=O)N1CCC[C@H]1C(=O)N[C@@H](CO)C(=O)N[C@@H](CO)C(=O)N[C@H](C(=O)N[C@@H](CC(N)=O)C(=O)N[C@H](C(=O)NCC(=O)N[C@@H](CO)C(=O)N[C@@H](CC(N)=O)C(=O)N[C@H](C(=O)N[C@@H](Cc1ccc(O)cc1)C(N)=O)[C@@H](C)O)C(C)C)[C@@H](C)O
# notes: extended by one residue at the N-terminus; also called compound 46
# Columns and labels:
# [1] = molecular target: T1, human calcitonin receptor; assay: cell-based or functional assay
# [2] = molecular target: T2, human amylin receptor (amylin 3(a) …); assay: cell-based or functional assay
# [3] = molecular target: T3, human calcitonin receptor; assay: ratio of IC50 at hCTR to IC50 at the human amylin receptor (reference)
# In short: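 Competition binding by SPA uses membrane preparations (35 ng/μL final) in pH 7.4 Hepes buffer with 1 mM CaCl2 and 5 mM MgCl₂. Incubation lasts 120 min at 25° C, and IC₅₀ comes from one-site fitting.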
# [4] = molecular target: T3, human calcitonin receptor; assay: SPA competition binding, membranes with human calcitonin receptor, displacement of 125I-calcitonin (Assay VII)
# In short: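 BHK hCTR membranes 35 ng/μL + SPA beads 0.05 mg/well; buffer 50 mM Hepes pH 7.4, 1 mM CaCl2, 5 mM MgCl₂, 0.1% OA, 0.02% Tween20. 120 min, 25° C., shaking. Scintillation count; IC50 by one-site binding competition.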
Binder,hCTR funct. EC50 [1] [nM],hAmylin-R funct. EC50 [2] [nM],Ratio hCT/hAmylin funct. [2],Ratio hCT/hAmylin binding [3],IC50 [4] [nM]
B1,1.25,0.094,,,
B2,21.5,0.651,,,
B3,1.48,0.04,36.9,,
B4,,,,26.8,14.8
B5,,,,48.9,9.53

# Source: patent US20140087995A1 (published 2014)
